Test results from PMC6289497 (ACS Omega, 2018).

Columns and labels:
[1] = target: human metapneumovirus (HMPV) strain CAN97-83 M2-1 protein (human metapneumovirus strain CAN97-83); assay: Gdm.HCl-induced equilibrium denaturation
SEC = target: the molecule itself; assay: SEC

Row | Molecule | stoichiometry N [1] | binding result (SEC)
1 | human metapneumovirus (HMPV) strain CAN97-83 M2-1 protein (natural protein) | 4 | –
2 | H25A RSV-M2-1 (natural protein) MSRRNPCKFEIRGHCLNGKRCHFSANYFEWPPHALLVRQNFMLNRILKSMDKSIDTLSEISGAAELDRTEEYALGVVGVLESYIGSINNITKQSACVAMSKLLTELNSDDIKKLRDNEELNSPKIRVYNTVISYIESNRKNNKQTIHLLKRLPADVLKKTIKNTLDIHKSITINNPKESTVSDTNDHAKNNDTT | – | binds
3 | H25C RSV-M2-1 (natural protein) MSRRNPCKFEIRGHCLNGKRCHFSCNYFEWPPHALLVRQNFMLNRILKSMDKSIDTLSEISGAAELDRTEEYALGVVGVLESYIGSINNITKQSACVAMSKLLTELNSDDIKKLRDNEELNSPKIRVYNTVISYIESNRKNNKQTIHLLKRLPADVLKKTIKNTLDIHKSITINNPKESTVSDTNDHAKNNDTT | – | binds
